{"source": "patent US20140274782A1", "about": "(Stanford University, published 2014)", "binders": {"B1": {"name": "3× Flag-3×MBT (designed binder)", "chain": "EEWSSSQPATGEKKECWSWESYLEEQKAITAPVSLFQDSQAVTHNKNGFKLGMKLEGIDPQHPSMYFILTVAEVCGYRLRLHFDGYSECHDFWVNANSPDIHPAGWFEKTGHKLQPPKGYKEEEFSWSQYLRSTRAQAAPKHLFVSQSHSPPPLGFQVGMKLEAVDRMNPSLVCVASVTDVVDSRFLVHFDNWDDTYDYWCDPSSPYIHPVGWCQKQGKPLTPPQDYPDPDNFCWEKYLEETGASAVPTWAFKVRPPHSFLVNMKLEAVDRRNPALIRVASVEDVEDHRIKIHFDGWSHGYDFWIDADHPDIHPAGWCSKTGHPLQPPLGPREPSSASPGG", "notes": "also called Flag-tagged 3×MBT; 3xFlag-3xMBT; not shown: made by PreScission cleavage of GST-3× Flag-3×MBT"}}, "assay_in_all_cases": "ProtoArray, GST-treated control array;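 further: human protein microarray (about 9500 recombinant proteins) incubated overnight with GST alone plus SAM cofactor as the negative control for G9a SET domain methylation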", "key": {"[1]": {"target": "T1, C2orf43-chromosome 2 open reading frame 43 (C2orf43) (human, UniProt Q9H6V9 1-325, limits assumed)", "T1 sequence (looked up)": "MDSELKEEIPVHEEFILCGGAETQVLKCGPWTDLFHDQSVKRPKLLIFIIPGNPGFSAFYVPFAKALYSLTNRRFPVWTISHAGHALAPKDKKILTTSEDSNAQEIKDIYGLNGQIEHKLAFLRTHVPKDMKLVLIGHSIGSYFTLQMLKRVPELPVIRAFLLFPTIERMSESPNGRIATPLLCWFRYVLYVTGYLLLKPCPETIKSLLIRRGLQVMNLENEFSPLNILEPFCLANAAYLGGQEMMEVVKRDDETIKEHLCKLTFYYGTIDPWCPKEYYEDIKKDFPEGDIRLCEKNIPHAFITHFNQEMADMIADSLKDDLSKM"}, "[2]": {"target": "T2, TGDS-TDP-glucose 4,6-dehydratase (TGDS) (human, UniProt O95455 1-350)", "T2 sequence (looked up)": "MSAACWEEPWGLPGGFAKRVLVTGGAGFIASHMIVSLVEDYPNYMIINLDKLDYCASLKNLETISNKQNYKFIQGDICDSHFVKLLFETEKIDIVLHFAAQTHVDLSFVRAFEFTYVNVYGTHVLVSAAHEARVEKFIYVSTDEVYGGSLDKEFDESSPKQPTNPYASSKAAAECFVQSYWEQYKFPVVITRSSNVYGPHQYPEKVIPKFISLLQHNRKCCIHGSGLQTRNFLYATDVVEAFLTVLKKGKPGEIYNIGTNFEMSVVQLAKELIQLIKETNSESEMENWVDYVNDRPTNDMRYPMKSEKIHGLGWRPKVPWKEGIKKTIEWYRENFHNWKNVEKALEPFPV"}, "[3]": {"target": "T3, STK17B-Serine/threonine-protein kinase 17B (human, UniProt O94768 1-372)", "T3 sequence (looked up)": "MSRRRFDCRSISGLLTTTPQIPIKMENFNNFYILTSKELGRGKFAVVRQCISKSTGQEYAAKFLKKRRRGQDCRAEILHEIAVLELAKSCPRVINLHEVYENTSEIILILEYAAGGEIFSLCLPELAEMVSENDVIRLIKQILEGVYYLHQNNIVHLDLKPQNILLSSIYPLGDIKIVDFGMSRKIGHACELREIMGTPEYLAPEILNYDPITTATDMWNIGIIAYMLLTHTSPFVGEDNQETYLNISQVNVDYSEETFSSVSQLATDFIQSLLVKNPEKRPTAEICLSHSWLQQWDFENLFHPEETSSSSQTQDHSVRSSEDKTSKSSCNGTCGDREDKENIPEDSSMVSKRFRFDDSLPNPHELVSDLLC"}, "[4]": {"target": "PSMA8-proteasome (prosome, macropain) subunit, alpha type, 8 (PSMA8) (human, UniProt Q8TAA3 1-256, limits assumed)", "sequence (Q8TAA3 whole entry)": "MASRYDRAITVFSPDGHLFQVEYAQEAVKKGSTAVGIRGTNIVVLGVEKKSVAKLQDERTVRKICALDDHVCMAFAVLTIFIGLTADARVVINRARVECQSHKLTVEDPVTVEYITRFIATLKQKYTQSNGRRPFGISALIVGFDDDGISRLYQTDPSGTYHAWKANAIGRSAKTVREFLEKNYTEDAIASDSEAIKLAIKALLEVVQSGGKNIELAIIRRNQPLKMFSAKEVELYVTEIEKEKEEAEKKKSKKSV"}, "[5]": {"target": "T4, ZBP1-Z-DNA binding protein 1 (ZBP1) (human, UniProt Q9H171 1-429, limits assumed)", "T4 sequence (looked up)": "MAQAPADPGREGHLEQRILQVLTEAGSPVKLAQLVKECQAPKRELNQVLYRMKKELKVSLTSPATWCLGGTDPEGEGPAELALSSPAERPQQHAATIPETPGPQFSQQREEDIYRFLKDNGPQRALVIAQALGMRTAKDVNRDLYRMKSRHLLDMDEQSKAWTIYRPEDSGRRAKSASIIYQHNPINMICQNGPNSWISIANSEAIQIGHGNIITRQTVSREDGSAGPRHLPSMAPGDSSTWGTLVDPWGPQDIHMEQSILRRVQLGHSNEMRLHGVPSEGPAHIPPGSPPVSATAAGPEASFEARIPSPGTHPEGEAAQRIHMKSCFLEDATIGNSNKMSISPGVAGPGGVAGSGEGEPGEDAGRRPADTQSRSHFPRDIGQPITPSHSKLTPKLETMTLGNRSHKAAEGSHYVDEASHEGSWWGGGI"}, "[6]": {"target": "T5, C12orf62-chromosome 12 open reading frame 62 (C12orf62) (human, UniProt Q96I36 1-57)", "T5 sequence (looked up)": "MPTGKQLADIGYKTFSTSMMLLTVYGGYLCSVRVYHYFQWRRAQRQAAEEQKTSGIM"}, "[7]": {"target": "T6, CAB39L-Calcium-binding protein 39-like (human, UniProt Q9H9S4 1-337)", "T6 sequence (looked up)": "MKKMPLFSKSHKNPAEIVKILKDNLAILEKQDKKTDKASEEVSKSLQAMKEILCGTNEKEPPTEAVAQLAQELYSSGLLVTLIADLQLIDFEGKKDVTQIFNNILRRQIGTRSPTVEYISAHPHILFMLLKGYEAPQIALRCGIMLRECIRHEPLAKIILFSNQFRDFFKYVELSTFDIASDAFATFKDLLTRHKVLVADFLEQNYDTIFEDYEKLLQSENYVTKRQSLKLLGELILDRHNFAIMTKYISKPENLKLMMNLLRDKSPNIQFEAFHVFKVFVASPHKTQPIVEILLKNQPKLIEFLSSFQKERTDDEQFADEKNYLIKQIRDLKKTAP"}, "[8]": {"target": "T7, GPX1-glutathione peroxidase 1 (GPX1) (human, UniProt P07203 1-203, limits assumed)", "T7 sequence (looked up)": "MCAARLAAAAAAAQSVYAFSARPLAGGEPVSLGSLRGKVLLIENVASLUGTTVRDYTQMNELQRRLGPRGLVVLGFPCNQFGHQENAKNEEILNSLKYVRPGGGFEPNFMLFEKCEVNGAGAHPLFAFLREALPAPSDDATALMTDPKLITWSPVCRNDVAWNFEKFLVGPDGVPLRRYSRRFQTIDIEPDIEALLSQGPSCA"}, "[9]": {"target": "SERPINB2-serpin peptidase inhibitor, clade B (ovalbumin), member 2 (SERPINB2) (human, UniProt P05120 1-415)", "sequence (P05120 whole entry)": "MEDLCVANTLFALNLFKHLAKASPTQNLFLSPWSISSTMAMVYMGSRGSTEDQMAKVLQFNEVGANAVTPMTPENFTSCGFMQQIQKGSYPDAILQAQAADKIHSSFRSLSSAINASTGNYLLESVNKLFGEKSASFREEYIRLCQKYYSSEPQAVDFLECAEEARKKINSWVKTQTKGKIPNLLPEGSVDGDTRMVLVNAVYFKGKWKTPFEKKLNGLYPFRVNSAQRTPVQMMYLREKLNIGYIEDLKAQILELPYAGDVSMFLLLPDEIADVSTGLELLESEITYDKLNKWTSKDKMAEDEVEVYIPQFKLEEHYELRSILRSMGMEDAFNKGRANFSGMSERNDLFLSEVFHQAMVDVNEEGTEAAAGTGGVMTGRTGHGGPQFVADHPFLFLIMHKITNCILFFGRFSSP"}, "[10]": {"target": "N/A-cDNA clone IMAGE:4623222, partial cds (human)"}, "[11]": {"target": "SAR1B-SAR1 gene homolog B (S. cerevisiae) (SAR1B), transcript variant 2 (human, UniProt Q9Y6B6 1-198)", "sequence (Q9Y6B6 whole entry, change not shown)": "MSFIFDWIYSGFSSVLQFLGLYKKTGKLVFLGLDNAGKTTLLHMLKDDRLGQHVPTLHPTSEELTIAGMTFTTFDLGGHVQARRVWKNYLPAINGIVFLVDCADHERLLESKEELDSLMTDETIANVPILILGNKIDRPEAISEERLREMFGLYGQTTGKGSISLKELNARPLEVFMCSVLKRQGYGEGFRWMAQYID"}, "[12]": {"target": "MGC4473-hypothetical protein MGC4473 (MGC4473) (human)"}}}
{"binder": "B1", "values": [{"measurement": "GST Average SNR", "setting": "[1]", "result": -0.147}, {"measurement": "GST Average SNR", "setting": "[2]", "result": 1.15}, {"measurement": "GST Average SNR", "setting": "[3]", "result": 0.575}, {"measurement": "GST Average SNR", "setting": "[4]", "result": -0.846}, {"measurement": "GST Average SNR", "setting": "[5]", "result": 0.628}, {"measurement": "GST Average SNR", "setting": "[6]", "result": 0.575}, {"measurement": "GST Average SNR", "setting": "[7]", "result": 0.182}, {"measurement": "GST Average SNR", "setting": "[8]", "result": 1.22}, {"measurement": "GST Average SNR", "setting": "[9]", "result": 0.54}, {"measurement": "GST Average SNR", "setting": "[10]", "result": 1.04}, {"measurement": "GST Average SNR", "setting": "[11]", "result": 0.558}, {"measurement": "GST Average SNR", "setting": "[12]", "result": 0.0125}]}
